Source: paper PMC7795263, “Chaperone-Assisted Mitotic Actin Remodeling by BAG3 and HSPB8 Involves the Deacetylase HDAC6 and Its Substrate Cortactin” (International Journal of Molecular Sciences, 2020)

Biological target: T1, myc-cortactin (UniProt Q60598 1-546)
T1 construct: cortactin, myc-tagged plasmid, gift from Dr Zhan (Holland Laboratory, American Red Cross); human cortactin would be Q14247; The PLA used an anti-cortactin antibody, which may also detect endogenous human cortactin of HeLa cells; source: HeLa (parental), transfected (Lipofectamine 2000), in fixed cells
T1 sequence (Q60598 whole entry): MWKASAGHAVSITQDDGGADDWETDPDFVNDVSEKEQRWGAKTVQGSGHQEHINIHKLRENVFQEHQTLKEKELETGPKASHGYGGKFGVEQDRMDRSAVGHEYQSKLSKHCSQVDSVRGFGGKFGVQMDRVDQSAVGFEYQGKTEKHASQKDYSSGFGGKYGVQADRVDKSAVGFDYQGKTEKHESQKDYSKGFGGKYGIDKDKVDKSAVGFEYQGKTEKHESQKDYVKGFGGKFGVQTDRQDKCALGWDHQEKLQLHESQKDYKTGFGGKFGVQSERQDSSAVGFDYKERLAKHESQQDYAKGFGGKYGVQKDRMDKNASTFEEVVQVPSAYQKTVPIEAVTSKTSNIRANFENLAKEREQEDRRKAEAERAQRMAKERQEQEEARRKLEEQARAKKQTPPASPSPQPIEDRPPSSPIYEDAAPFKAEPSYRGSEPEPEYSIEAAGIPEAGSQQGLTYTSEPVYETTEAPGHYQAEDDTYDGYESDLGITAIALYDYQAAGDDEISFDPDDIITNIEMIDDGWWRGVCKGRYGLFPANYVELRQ
Assay: proximity ligation; Duolink in situ PLA with anti-GFP and anti-cortactin antibodies in fixed HeLa cells cotransfected with GFP-HDAC6 and myc-cortactin; asynchronous or synchronized in mitosis (double thymidine block, release 8-9 h); siCtl or siBAG3; PLA foci per cell counted by confocal microscopy
Conditions: partners not purified

fold change of PLA foci per cell, siBAG3 mitotic cells against siCtl mitotic cells: ~2 fold
B1: GFP-HDAC6 (histone deacetylase 6, WT) (enzyme, UniProt Q9UBN7 1-1215, looked up)
chain: MTSTGQDSTTTRQRRSRQNPQSPPQDSSVTSKRNIKKGAVPRSIPNLAEVKKKGKMKKLGQAMEEDLIVGLQGMDLNLEAEALAGTGLVLDEQLNEFHCLWDDSFPEGPERLHAIKEQLIQEGLLDRCVSFQARFAEKEELMLVHSLEYIDLMETTQYMNEGELRVLADTYDSVYLHPNSYSCACLASGSVLRLVDAVLGAEIRNGMAIIRPPGHHAQHSLMDGYCMFNHVAVAARYAQQKHRIRRVLIVDWDVHHGQGTQFTFDQDPSVLYFSIHRYEQGRFWPHLKASNWSTTGFGQGQGYTINVPWNQVGMRDADYIAAFLHVLLPVALEFQPQLVLVAAGFDALQGDPKGEMAATPAGFAQLTHLLMGLAGGKLILSLEGGYNLRALAEGVSASLHTLLGDPCPMLESPGAPCRSAQASVSCALEALEPFWEVLVRSTETVERDNMEEDNVEESEEEGPWEPPVLPILTWPVLQSRTGLVYDQNMMNHCNLWDSHHPEVPQRILRIMCRLEELGLAGRCLTLTPRPATEAELLTCHSAEYVGHLRATEKMKTRELHRESSNFDSIYICPSTFACAQLATGAACRLVEAVLSGEVLNGAAVVRPPGHHAEQDAACGFCFFNSVAVAARHAQTISGHALRILIVDWDVHHGNGTQHMFEDDPSVLYVSLHRYDHGTFFPMGDEGASSQIGRAAGTGFTVNVAWNGPRMGDADYLAAWHRLVLPIAYEFNPELVLVSAGFDAARGDPLGGCQVSPEGYAHLTHLLMGLASGRIILILEGGYNLTSISESMAACTRSLLGDPPPLLTLPRPPLSGALASITETIQVHRRYWRSLRVMKVEDREGPSSSKLVTKKAPQPAKPRLAERMTTREKKVLEAGMGKVTSASFGEESTPGQTNSETAVVALTQDQPSEAATGGATLAQTISEAAIGGAMLGQTTSEEAVGGATPDQTTSEETVGGAILDQTTSEDAVGGATLGQTTSEEAVGGATLAQTTSEAAMEGATLDQTTSEEAPGGTELIQTPLASSTDHQTPPTSPVQGTTPQISPSTLIGSLRTLELGSESQGASESQAPGEENLLGEAAGGQDMADSMLMQGSRGLTDQAIFYAVTPLPWCPHLVAVCPIPAAGLDVTQPCGDCGTIQENWVCLSCYQVYCGRYINGHMLQHHGNSGHPLVLSYIDLSAWCYYCQAYVHHQALLDVKNIAHQNKFGEDMPHPH
notes: histone deacetylase 6 (HDAC6), wild type, expressed from peGFP.N1-HDAC6 WT (Addgene 36188); The pEGFP-N1 vector usually places GFP at the C-terminus of the insert (surmised); The Addgene 36188 insert is recalled to be human HDAC6; also called peGFP.N1-HDAC6 WT; source: HeLa (parental), transfected (Lipofectamine 2000), in fixed cells
